This is an account of results in patent US7514534 (DYAX, dated 2009).

Experiment [1] concerns the target T1, MMP-26 catalytic domain, tagged with hexa-histidine (human, UniProt Q9NRE1 90-261).
T1 construct: the forward primer adds Met-Ala before it; also called MMP-26 target protein; Matrilysin-2; not shown: Also any N-terminal residues added by the forward primer (Met-Ala according to our card; the primers were not visible to me)
T1 sequence: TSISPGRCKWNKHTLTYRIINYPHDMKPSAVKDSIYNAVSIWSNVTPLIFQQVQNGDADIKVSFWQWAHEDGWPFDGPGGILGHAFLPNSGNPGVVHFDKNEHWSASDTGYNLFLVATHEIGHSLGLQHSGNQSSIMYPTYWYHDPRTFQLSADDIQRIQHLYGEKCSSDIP
Kind of experiment: bead-based ELISA, MMP-26 on nickel beads, IgG4 culture supernatant. Here is the method: Reformatted and expressed full-length MMP-26 binding IgG4 antibodies were tested for specificity in a bead-based ELISA. Approximately 1.25 μg of MMP-26 protein was bound to nickel-coated magnetic beads (Novagen) which had been pre-blocked with phosphate buffered saline containing 5% (w/v) nonfat dry milk and 0.05% (v/v) Tween-20. The beads were washed in phosphate buffered saline containing 0.05% (v/v) Tween-20 (PBS-T) and 100 uls of unpurified cell culture supernatant containing transiently produced MMP-26-binding antibodies was added and incubated on a rotator for sixty minutes. The beads were washed with PBS-T and MMP-26-binding antibodies were detected with an HRP-conjugated anti-human secondary antibody. Data is expressed in fold over background where background consists of beads, blocking agent, and culture supernatant containing target antibody (Table 2; in this table, Results shown as fold over background (F>B) where background consists of beads, blocking agent, and culture supernatant).
In general terms: An ELISA detects its analyte on a solid surface through an enzyme-linked reagent.

Another experiment concerns the target T2, MMP-9 (UniProt P14780 107-707, limits assumed).
T2 construct: also called gelatinase
Kind of experiment: cross-reactivity ELISA on coated MMP. As to the method:
(§1) Twenty-one of the reformatted MMP-26 antibodies were tested for MMP cross reactivity by ELISA analysis. MMP-3, MMP-7, MMP-9, and MMP-12 were coated onto Immulon 2 HB 96-well plates at a concentration of 1 μg/ml for 1 hour at 37° C. The plates were blocked with PBS-T containing 5% (w/v) nonfat dry milk for thirty minutes and subsequently washed with PBS-T. Each antibody was tested for reactivity to all of the above mentioned MMPs at a concentration of 2 μg/ml with an incubation time of 1 hour. Bound antibody was detected with an HRP-conjugated anti-human secondary antibody (Table 3, NT=not tested.).

For the next experiment, the target named is T3, MMP-3 (UniProt P08254 100-477, limits assumed).
T3 construct: also called stromelysin-1
Put plainly: cross-reactivity ELISA on coated MMP. As to the method: as §1

T3 sequence (P08254 100-477 limits assumed): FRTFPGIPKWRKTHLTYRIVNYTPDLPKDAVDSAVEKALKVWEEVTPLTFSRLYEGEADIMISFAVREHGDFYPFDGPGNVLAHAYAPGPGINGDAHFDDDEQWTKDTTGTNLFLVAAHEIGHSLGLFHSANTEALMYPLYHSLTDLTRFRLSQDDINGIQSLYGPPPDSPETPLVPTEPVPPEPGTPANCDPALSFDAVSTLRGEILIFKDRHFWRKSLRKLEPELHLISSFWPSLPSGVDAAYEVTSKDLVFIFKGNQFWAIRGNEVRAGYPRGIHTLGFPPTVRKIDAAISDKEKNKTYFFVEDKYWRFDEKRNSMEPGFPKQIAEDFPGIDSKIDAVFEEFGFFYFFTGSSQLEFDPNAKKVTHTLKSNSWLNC
T2 sequence (P14780 107-707 limits assumed): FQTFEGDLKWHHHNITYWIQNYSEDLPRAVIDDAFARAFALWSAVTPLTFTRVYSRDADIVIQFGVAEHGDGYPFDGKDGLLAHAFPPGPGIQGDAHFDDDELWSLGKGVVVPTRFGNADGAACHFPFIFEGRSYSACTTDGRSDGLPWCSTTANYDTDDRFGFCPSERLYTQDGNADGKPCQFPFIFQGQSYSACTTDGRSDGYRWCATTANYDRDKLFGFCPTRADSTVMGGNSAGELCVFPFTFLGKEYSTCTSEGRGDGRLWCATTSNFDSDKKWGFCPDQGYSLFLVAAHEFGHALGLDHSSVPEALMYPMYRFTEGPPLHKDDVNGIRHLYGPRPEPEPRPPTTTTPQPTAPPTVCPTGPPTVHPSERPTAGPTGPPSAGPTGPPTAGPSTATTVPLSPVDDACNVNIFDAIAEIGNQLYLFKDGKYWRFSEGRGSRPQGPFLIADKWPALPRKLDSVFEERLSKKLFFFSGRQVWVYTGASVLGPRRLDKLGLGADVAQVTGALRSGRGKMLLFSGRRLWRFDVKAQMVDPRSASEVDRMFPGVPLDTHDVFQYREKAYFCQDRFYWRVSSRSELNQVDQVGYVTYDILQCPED

B1: B01 (antibody, human IgG4, V domains shown)
VH: EVQLLESGGGLVQPGGSLRLSCAASGFTFSTYDMLWVRQAPGKGLEWVSSISPSGGSTSYADSVKGRFTISRDNSKNTLYLQLNSLRAEDTAVYYCAREKASDLSGTYSEALDHWGQGTLVTVSS
VL: DIQMTQSPGTLSLSPGERATLSCRASQSVSSSYFAWYQQKPGQAPRLLIYDASSRATGIPDRFSGSGSGTDFTLTISRLEPEDFAVYYCQQYGSSPPMYTFGQGTKLEIKR
notes: whole human IgG4
As to B1, in experiment [1], the “F > B (fold over background)” value is 2.3 fold over background. Further, the binding result with MMP-9 and with MMP-3 was “no binding (tested: 2 µg/ml)” in each case.

B2: B10 (antibody, human IgG4, V domains shown)
VH: EVQLLESGGGLVQPGGSLRLSCAASGFTFSSYAMMWVRQAPGKGLEWVSWIVPSGGTTFYADSVKGRFTISRDNSKNTLYLQMNSLRAEDTAVYYCARGLYRWGQGTLVTVSSASTKGPSVFP
VL: DIQMTQSPSSLSASVGDRVTIACRTSQNVNRYLNWYQHKLGQAPKLLIYGATILQSGVPSRFRGSGSGTDFILTITNLQPEDFAVYYCQQTYSPPLTFGQGTKAEFKGTVAAPSV
notes: whole human IgG4
Consider B2, for which the “F > B (fold over background)” value in experiment [1] was 2.7 fold over background. In addition, the binding result in the experiment with MMP-9 is “no binding (tested: 2 µg/ml)”.

B3: B04 (antibody, human IgG4, V domains shown)
VH: EVQLLESGGGLVQPGGSLRLSCAASGFTFSFYWMMWVRQAPGKGLEWVSGISSSGGFTKYADSVKGRFTISRDNSKNTLYLQMNSLRAEDTAVYYCARETSRRAFDIWGQGTMVTVSS
VL: DIQMTQSPSSVSASVGDRVTITCRASQGISKSLAWYQQKPGKAPKLLVYGAFSLESGVPSRFSGTGAGTDFILTISRLQPEDFATYYCQQANSFPLTFGGGTKVEIKR
notes: whole human IgG4
As to B3, the binding result with MMP-9 and in the experiment with MMP-3 was “no binding (tested: 2 µg/ml)” in each case.

B4: D6-orig (antibody, human IgG4, V domains shown)
VH: EVQLLESGGGLVQPGGSLRLSCAASGFTFSMYSMRWVRQAPGKGLEWVSSIYPSGGSTEYADSVKGRFTISRDNSKNTLYLQMNSLRAEDTAVYYCAREGGENDYWGQGTLVTVSS
VL: DIQMTQSPLSLSASVGDRVAITCRASQSIDTYLNWYQQKPGKAPKLLIYAASKLEDGVPSRFSGSGTGTDFTLTIRSLQPEDFASYFCQQSYSSPGITFGPGTKVEIKR
notes: whole human IgG4
For B4, the binding result in the experiment with MMP-3 is “no binding (tested: 2 µg/ml)”.

B5: B02 (antibody, human IgG4, V domains shown)
VH: EVQLLESGGGLVQPGGSLRLSCAASGFTFSDYFMKWVRQAPGKGLEWVSSIYPSGGPTKYADSVKGRFTISRDNSKNTLYLQMNSLRAEDTAVYYCARERSSGWYGYYYYGMDVWGQGTTVTVSS
VL: DIQMTQSPSSLSASVGDRVAITCRASQSIDTYLNWYQQKPGKAPKLLIYAASKLEDGVPSRFSGSGTGTDFTLTIRSLQPEDFASYFCQQSYSSPGITFGPGTKVEIKR
notes: whole human IgG4
As for B5, the binding result with MMP-9 and in the experiment with MMP-3 was “no binding (tested: 2 µg/ml)” each time.

B6: B08 (antibody, human IgG4, V domains shown)
VH: EVQLLESGGGLVQPGGSLRLSCAASGFTFSRYMMNWVRQAPGKGLEWVSVIWSSGGKTLYADSVKGRFTISRDNSKNTLYLQMKSLRAEDTAVYYCARGGYNNYYYSMDVWGQGTTVTVSS
VL: QSELTQPHSVSGSPGKTVTISCTRSSGSIAGNYVQWYQQRPGSSPTTVIYEDNKRPSGVPDRFSGSIDSSSNSASLIISGLKTEDEADYYCHSYDTSNQVFGGGTKLTVLG
notes: whole human IgG4
As for B6, in experiment [1], the “F > B (fold over background)” value stood at 3 fold over background. Further, the binding result in the experiment with MMP-9 and with MMP-3 was “no binding (tested: 2 µg/ml)” throughout.

B7: B06 (antibody, human IgG4, V domains shown)
VH: EVQLLESGGGLVQPGGSLRLSCAASGFTFSQYFMKWVRQAPGKGLEWVSSISPSGGLTQYADSVKGRFTISRDNSKNTLYLQMNSLRAEDTAVYYCARGGIEAPGSPSDYWGQGTLVTVSS
VL: DIQMTQSPSFLSASVGDRVTITCRASQGISSYLAWYQQKPGKAPKLLIYAASTLQSGVPSRFSGSGSGTDFTLTISSLEPEDFATYYCQESYSTPFFTFGPGTKVDIRR
notes: whole human IgG4
In the case of B7, in experiment [1], the “F > B (fold over background)” value was 2.1 fold over background. Further, the binding result with MMP-9 and with MMP-3 was “no binding (tested: 2 µg/ml)” in each case.

B8: A11 (antibody, human IgG4, V domains shown)
VH: EVQLLESGGGLVQPGGSLRLSCAASGFTFSWYTMMWVRQAPGKGLEWVSRISPSGGHTLYADSVKGRFTISRDNSZNTLYLQMNSLRAEDTAVYYCARDTWDDYYDSSGYYNDFDYWGQGTLVTVSS
VL: QSALTQPPSVSLAPGQTARITCGGNNIGTKSVHWYQQKPGQAPVLVVYDDSDRPSGIPERFSGSNSGNTATLTISRVEAGDEADYYCQVWDSGSDHQVFGGGTKLTVLG
notes: whole human IgG4; the VHC entry has one unread residue (printed z, K75z)
Take B8: the “F > B (fold over background)” value in experiment [1] amounted to 1.7 fold over background. In addition, the binding result with MMP-9 and in the experiment with MMP-3 was “no binding (tested: 2 µg/ml)” each time.

B9: A10 (antibody, human IgG4, V domains shown)
VH: EVQLLESGGGLVQPGGSLRLSCAASGFTFSAYRMFWVRQAPGKGLEWVSSIWPSGGTTSYADSVKGRFTISRDNSKNTLYLQMNSLRAEDTAVYYCARDRGYDSSGYFDYWGQGTLVTVSS
VL: QSELTQPPSASGTPGQRVTISCSGGSSNIGSNYVSWYQQLPGTAPKLLIYNNNQRPSGVPDRFSGSKSGTSASLAISGLRSEDEADYYCAAWDDSLSSAVFGGGTQLTVLG
notes: whole human IgG4
As for B9, the “F > B (fold over background)” value in experiment [1] was found to be 1.84 fold over background. The binding result with MMP-9 and with MMP-3 was “no binding (tested: 2 µg/ml)” throughout.

B10: C12 (antibody, V domains shown)
VH: EVQLLESGGGLVQPGGSLRLSCAASGFTFSAYNMMWVRQAPGKGLEWVSRIYPSGGYTLYADSVKGRFTISRDNSKNTLYLQMNSLRAEDTAVYYCARQKLMIRAVRPFDYWGQGTLVTVSS
VL: QSELTQPPSVSVSPAQTASITCSGDKLGDKYACWYQQKPGQSPVLVIYEDTKRPSGIPERFSGSNSGNTATLTISGTQVMDEADYYCQVWDSSTAVFGGGTKLTVLG
notes: whole human IgG4
Regarding B10, the “F > B (fold over background)” value in experiment [1] was found to be 1.8 fold over background. The binding result with MMP-9 was “no binding (tested: 2 µg/ml)”.

B11: H6-orig (antibody, human IgG4, V domains shown)
VH: EVQLLESGGGLVQPGGSLRLSCAASGFTFSQYWMNWVRQAPGKGLEWVSGIGPSGGITYYADSVKGRFTISRDNSKNTLYLQMNSLRAEDTAVYYCARGEEDGYNSDYWGQGTLVTVSS
VL: QSELTQPPSASGSPGQSVTISCTGTSSDVGAYNYVSWYQQHPGKAPKLIIYEVNKRPSGVPDRFSASKSGNTASLTVSGLQAEDEADYYCNSYAGSNSLIFGGGTKLTVLG
notes: whole human IgG4
In the case of B11, the binding result with MMP-9 and with MMP-3 was “no binding (tested: 2 µg/ml)” each time.

B12: A12 (antibody, human IgG4, V domains shown)
VH: EVQLLESGGGLVQPGGSLRLSCAASGFTFSAYWMDWVRQAPGKGLEWVSVIYPSGGSTNYADSVKGRFTISRDNSKNTLYLQMNSLRAEDTAVYYCAREGIAAAAPMDVWGKGTTVTVSS
VL: DIQMTQSPGTLSLSPGERATLSCRASQSVSRSYLGWYQQKPGQAPRLLIYGASNRATGIPDRFSGSGSGTDFTLTISRLEPEDFAVYYCQQYGISPLTFGPGTKVDIKR
notes: whole human IgG4
Regarding B12, the “F > B (fold over background)” value in experiment [1] turned out to be 1.8 fold over background. Moreover, the binding result with MMP-9 and with MMP-3 was “no binding (tested: 2 µg/ml)” in each case.

B13: B07 (antibody, human IgG4, V domains shown)
VH: EVQLLESGGGLVQPGGSLRLSCAASGFTFSQYQMIWVRQAPGKGLEWVSVIVPSGGITNYADSVKGRFTISRDNSKNTLYLQMNSLRAEDTAVYYCARGGVEAVDSSSPDYWGQGTLVTVSS
VL: DIQMTQSPATLSLSPGERATLSCRASQSVSSYLAWYQQKPGQAPRLLIYDASNRATGIPARFSGSGSGTDFTLTISSLEPEDFAVYYCQQRSNWPRTFGGGTKVEIKR
notes: whole human IgG4
Take B13: the binding result with MMP-9 and with MMP-3 was “no binding (tested: 2 µg/ml)” throughout.

B14: A1-orig (antibody, human IgG4, V domains shown)
VH: EVQLLESGGGLVQPGGSLRLSCAASGFTFSYYRMSWVRQAPGKGLEWVSSIGPSGGDTLYADSVKGRFTISRDNSKNTLYLQMNSLRAEDTAVYYCARSFSSGPYYFDYWGQGTLVTVSS
VL: QSVLTQPPSASGTPGQRVIISCSGSSSNIGSHYVHWYQQVPGTAPKLLIYRNGQRPSGVPDRFSGFKSGTSASLAISGLRSEDEANYYCATWDDSVLFGGGTTLTVLG
notes: whole human IgG4
As to B14, in the experiment with MMP-3, the binding result is reported as “no binding (tested: 2 µg/ml)”.
